Results from patent US8586538B2, “Method of treating a patient suffering from a bleeding disorder comprising administering an antibody against the A3-C1 of FVIII” (Stichting Sanquin Bloedvoorziening, priority 2002, dated 2013).

Target: T1, FVIII/FV^1811-1818 chimera (Homo sapiens, UniProt P00451, E1830S/F1835V/K1832Y/K1837H/T1831S)
T1 construct: FVIII/FV^1811-1818 light chain chimera and wild-type FVIII light chain were purified employing Q-Sepharose chromatography; made in house; host or cells: murine fibroblasts (C127) cells
T1 sequence (P00451 1668-2351 E1830S/T1831S/K1832Y/F1835V/K1837H limits assumed): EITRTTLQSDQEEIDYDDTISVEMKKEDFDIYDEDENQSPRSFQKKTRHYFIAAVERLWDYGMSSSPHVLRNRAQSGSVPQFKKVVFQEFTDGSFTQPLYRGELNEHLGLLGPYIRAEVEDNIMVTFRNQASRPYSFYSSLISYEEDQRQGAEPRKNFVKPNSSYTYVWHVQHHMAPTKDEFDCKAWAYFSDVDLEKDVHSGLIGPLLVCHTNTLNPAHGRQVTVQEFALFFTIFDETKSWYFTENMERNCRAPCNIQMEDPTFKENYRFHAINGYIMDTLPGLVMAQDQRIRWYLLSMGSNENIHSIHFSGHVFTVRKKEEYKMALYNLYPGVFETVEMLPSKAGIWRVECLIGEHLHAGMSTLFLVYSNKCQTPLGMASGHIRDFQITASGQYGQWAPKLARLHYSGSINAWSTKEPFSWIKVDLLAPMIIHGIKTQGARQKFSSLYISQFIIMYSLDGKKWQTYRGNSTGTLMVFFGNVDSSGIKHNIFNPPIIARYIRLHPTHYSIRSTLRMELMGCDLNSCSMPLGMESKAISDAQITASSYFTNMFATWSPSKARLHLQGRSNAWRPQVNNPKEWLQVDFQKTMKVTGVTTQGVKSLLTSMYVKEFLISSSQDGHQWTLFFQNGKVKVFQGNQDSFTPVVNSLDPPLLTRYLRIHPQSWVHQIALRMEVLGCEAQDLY
Assay: SPR binding of scFv KM41 to FVIII/FV^1811-1818 light chain chimera
Details: scFv 40 nM
Method: FIG. 7. Binding of scFv KM41 to the FVIII/FV^1811-1818 light chain chimera. ScFv EL14 at a CM5 sensor chip (67 fmol/mm^2) was incubated with either the recombinant wild-type FVIII light chain or the recombinant FVIII/FV^1811-1818 chimera till a density of 20 fmol/mm^2, in 150 mM NaCl, 50 mM Tris (pH 7.4). ScFv KM41 (40 nM) was passed over two separate channels with immobilized intact FVIII light chain (I) or FVIII/FV^1811-1818 chimera (II), respectively. Response is indicated as Resonance Units (RU) and is corrected for nonspecific binding.
The kinetics of protein interactions was determined by surface plasmon resonance (SPR) analysis, employing a BIAcore™2000 biosensor system (Biacore AS, Uppsala, Sweden). […] Association of analyte was assessed in 150 mM NaCl, 2 mM CaCl2, 0.005% (v/v) Tween® 20, and 20 mM Hepes (pH 7.4) for 2 min, at a flow rate of 20 μl/min at 25° C. […] The association (kon) and dissociation (koff) rate constants were determined by using the BIAevaluation software 3.1 (Biacore AB, Uppsala, Sweden). […] Equilibrium dissociation constants (kd) were calculated from the ratio koff/kon. […]

- Binding of scFv to immobilized FVIII/FV^1811-1818 chimera: did not recognize
B1: scFv KM41: scFv antibody fragment directed against FVIII region Arg^1803-Lys^1818 (protein)
scFv: QVQLLQSAADVKKPGASVKVSCTASGYIFTSYDIDWVRQATGQGLEWMGWMNPNSGNAGFAQKFKGRLTLTRDTSTSTAYMELRRLESEDTAVYYCARSTPHSYSGSGLPPTSDSWGQGTLVTVSSGGGGSGGGGSGGGGSEIVLTQSPGTLSLSPGERATLSCRASQSVSSSFLGWYQQKPGQAPRLLIYGASSRATGIPDRFSGSGSGTDFTLTISRLEPEDFAVYYCQQYGISPLTFGGGTKLEIKRAAAEQKLISEEDLNGAAHHHHHH
